Source: publication PMC10502760, “MdNAC104 positively regulates apple cold tolerance via CBF‐dependent and CBF‐independent pathways”

T1: MdNAC104-His (Malus domestica, UniProt D9ZJ88 1-204)
T1 sequence: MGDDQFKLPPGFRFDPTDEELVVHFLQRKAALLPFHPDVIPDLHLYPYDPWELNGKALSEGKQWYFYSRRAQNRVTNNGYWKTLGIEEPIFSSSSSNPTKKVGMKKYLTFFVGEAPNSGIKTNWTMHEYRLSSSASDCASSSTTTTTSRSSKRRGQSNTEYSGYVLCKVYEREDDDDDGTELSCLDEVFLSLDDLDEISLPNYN

B1: MdCBF1-P1 (dsDNA)
DNA 1: CATCCCCACGAAAAGTACACAACCAACACA
DNA 2: TGTGTTGGTTGTGTACTTTTCGTGGGGATG
B2: MdCBF3-P1 (dsDNA)
DNA 1: TATATATATTCATGTGGATTGGGTGATGAG
DNA 2: CTCATCACCCAATCCACATGAATATATATA
B3: MdF3H-a-P1 (dsDNA)
DNA 1: CAAACACAAAACGTATTTCGTTTGAGCCAA
DNA 2: TTGGCTCAAACGAAATACGTTTTGTGTTTG
B4: MdF3H-a-P2 (dsDNA)
DNA 1: ACATAGATGAATACATGTCACCGCCATAAT
DNA 2: ATTATGGCGGTGACATGTATTCATCTATGT
B5: MdF3H-a-P3 (dsDNA)
DNA 1: GTTACCCCATATGACCATGTAACCGTCTGA
DNA 2: TCAGACGGTTACATGGTCATATGGGGTAAC
B6: MdF3H-a-P5 (dsDNA)
DNA 1: CAATTGAGTAATTTCGTTCTTAATTCTTTT
DNA 2: AAAAGAATTAAGAACGAAATTACTCAATTG
B7: MdF3H-a-P7 (dsDNA)
DNA 1: CAAAAATATTTTCCGTAATGAAGTGTCTTG
DNA 2: CAAGACACTTCATTACGGAAAATATTTTTG
B8: MdANS-b-P1 (dsDNA)
DNA 1: GGTGAGATGTCACATGTACAACAGCCACAT
DNA 2: ATGTGGCTGTTGTACATGTGACATCTCACC
B9: MdANS-b-P4 (dsDNA)
DNA 1: GATTCCTATATATACGTAACTAGCTCATAG
DNA 2: CTATGAGCTAGTTACGTATATATAGGAATC
B10: MdFSD2-P3 (dsDNA)
DNA 1: GTCATTTTGGACGAAAACTTTAATGAAAAT
DNA 2: ATTTTCATTAAAGTTTTCGTCCAAAATGAC
B11: MdPRXR1.1-P2 (dsDNA)
DNA 1: TTTGTAACTAACGGAAAACTTAATACAAAA
DNA 2: TTTTGTATTAAGTTTTCCGTTAGTTACAAA
B12: MdCBF1-P1-mut (dsDNA)
DNA 1: CATCCCCAAAAAAAGTACACAACCAACACA
DNA 2: TGTGTTGGTTGTGTACTTTTTTTGGGGATG
B13: MdCBF3-P1-mut (dsDNA)
DNA 1: TATATATATTAAAAAAGATTGGGTGATGAG
DNA 2: CTCATCACCCAATCTTTTTTAATATATATA
B14: MdCHS-b-P2 (dsDNA)
DNA 1: GATGTGGAACATGTGTGGCTATTAGGTTGGTATTCACACGAAATACGACCTACTATATAC
DNA 2: GTATATAGTAGGTCGTATTTCGTGTGAATACCAACCTAATAGCCACACATGTTCCACATC
B15: MdCHS-b-P4 (dsDNA)
DNA 1: TCCTTTTTACGAAAGTGACATTACAACGAA
DNA 2: TTCGTTGTAATGTCACTTTCGTAAAAAGGA
B16: MdCHI-P1 (dsDNA)
DNA 1: CTTTTGAGTTGGTTTCGTTGAAGACTTTTT
DNA 2: AAAAAGTCTTCAACGAAACCAACTCAAAAG

Biological target: T1, MdNAC104-His
Assay: EMSA; LightShift Chemiluminescent EMSA kit (Thermo) per manufacturer; buffer, salt, pH and temperature not stated
Settings: protein: recombinant; tags: His (pET32a); chain copies: 2; label: biotin; blunt

Row | Binder | binding result
1 | B1 | binds
2 | B2 | binds
3 | B3 | binds
4 | B4 | binds
5 | B5 | binds
6 | B6 | binds
7 | B7 | binds
8 | B8 | binds
9 | B9 | binds
10 | B10 | binds
11 | B11 | binds
12 | B12 | no binding
13 | B13 | no binding
14 | B14 | binds
15 | B15 | binds
16 | B16 | binds
